Columns and labels:
[1] = molecular target: human GLT25D1/COLGALT1 (wild type) (human) (UniProt Q8NBJ5); assay: SEC-MALS
[2] = molecular target: human GLT25D1/COLGALT1 (wild type) (human) (UniProt Q8NBJ5); assay: SEC-SAXS
[3] = molecular target: human GLT25D1/COLGALT1 (wild type) (human) (UniProt Q8NBJ5); assay: mass photometry

stoichiometry N [1]: 2
stoichiometry N [2]: 2
stoichiometry N [3]: 2
Substance: human GLT25D1/COLGALT1 (wild type) (from UniProt Q8NBJ5 30-618) (enzyme)

Reference: PMC12003778
